Consider one molecule from article doi:10.1101/2024.03.19.585385 (bioRxiv, 2024).

The target of this experiment is T1, RNAP α subunit (αI) (T. thermophilus, UniProt Q5SHR6 1-315).
T1 sequence (looked up): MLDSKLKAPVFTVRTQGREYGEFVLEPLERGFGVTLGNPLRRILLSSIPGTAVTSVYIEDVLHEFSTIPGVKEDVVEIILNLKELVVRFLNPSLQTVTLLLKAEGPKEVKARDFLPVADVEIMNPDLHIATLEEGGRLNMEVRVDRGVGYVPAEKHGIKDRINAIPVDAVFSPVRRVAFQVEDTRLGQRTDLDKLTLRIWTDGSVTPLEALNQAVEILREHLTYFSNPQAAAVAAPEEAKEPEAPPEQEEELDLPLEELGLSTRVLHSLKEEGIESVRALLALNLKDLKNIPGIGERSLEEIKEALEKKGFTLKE
In words: cryo-EM structure.

B1: ribosomal protein S10 (NusE) (natural protein, T. thermophilus, UniProt Q5SHN7 1-105, looked up)
chain: MPKIRIKLRGFDHKTLDASAQKIVEAARRSGAQVSGPIPLPTRVRRFTVIRGPFKHKDSREHFELRTHNRLVDIINPNRKTIEQLMTLDLPTGVEIEIKTVGGGR
On to B1, for which the binding result is listed as “binds”.
